Laboratory results as given in patent US12077763B2, “RNA-based control of powdery mildew” (Greenlight Biosciences, Inc., priority 2021, dated 2024).

Test system: E. necator
Assay: Leaf disc assay, dry inoculum (settling tower), decrease in disease severity / hyphal growth (Example 2)
Settings: decrease in disease severity (hyphal growth) relative to untreated control, value ± SE; for % decrease =/− SE TP1: time point 1 (untreated control hyphal growth ≥50%); for % decrease =/− SE TP2: time point 2

| Molecule | % decrease =/− SE TP1 [%] | % decrease =/− SE TP2 [%] |
| --- | --- | --- |
| GS3477 (nucleic acid) sense: CCUCUCGCCAUUAAAUACUCAUAAAAUAUCCGCACGUACAGUUCUCUUCACUUCGGUACCUGCUAAAUACAGAGAUGAAUCUAAAUUACGUCAGAUAUUUGGCUCAUGCGUGAAAAAGGUUUGGAUAACAAAAGACAGUUCAGAGGUUGACGACCUUGUAUCUGAGCGCGACGAUCUCCUACUAAGAUUAGAAUCAUCUGAAGUUAAGCUUAUUAAAAUUGCAAAUACAGAGAGACUCAAGAUUAACAAGAAAAAAGCUGGAGAUAAUAACUCAUCAUCUGAAGUCGCAGCUCCUGUCCCAGCAUCUCUAGUUGACUACUGGGUUCCAGAAAAUAAGCGUCCGACUCAUAAGCUUGGCUUAUUUGGGCUAGUUGGACAGAAAGUUGAUACGAUUAAAU antisense: AUUUAAUCGUAUCAACUUUCUGUCCAACUAGCCCAAAUAAGCCAAGCUUAUGAGUCGGACGCUUAUUUUCUGGAACCCAGUAGUCAACUAGAGAUGCUGGGACAGGAGCUGCGACUUCAGAUGAUGAGUUAUUAUCUCCAGCUUUUUUCUUGUUAAUCUUGAGUCUCUCUGUAUUUGCAAUUUUAAUAAGCUUAACUUCAGAUGAUUCUAAUCUUAGUAGGAGAUCGUCGCGCUCAGAUACAAGGUCGUCAACCUCUGAACUGUCUUUUGUUAUCCAAACCUUUUUCACGCAUGAGCCAAAUAUCUGACGUAAUUUAGAUUCAUCUCUGUAUUUAGCAGGUACCGAAGUGAAGAGAACUGUACGUGCGGAUAUUUUAUGAGUAUUUAAUGGCGAGAGG | 28 ± 4 | 7 ± 8 |
| GS3457 (nucleic acid) sense: UCAGGCAAGGGUGGAGUGGGUAAAAGUACAUUUACAACACUGCUUGCACAUGCACUUGCAAAAGACCCGGAAAUUGUGGUUGGUGUCAUGGAUACAGAUAUUUGCGGGCCAAGUAUUCCAAAAAUGAUGGGAGUUGAGGAAGAGAUUAUUCACGUCAGUAAUACAGGAUGGAGUCCAGUUUGGGUACUUGAAAAUCUAGCAGUAAUGAGCGUGCAAUUUAUGCUUCCCAACCGAGAUGAUGCAGUUAUUUGGAGAGGACCAAAGAAAAACGGCCUGAUAAAGCAAUUUUUAAAAGAUGUAGAAUGGGGCGAAAUGGAAUAUUUAUUAGUAGACACUCCACCAGGAACAAGUGAUGAACAUUUGAGUGUCAACACUUUUUUGAAAGAGAGUGGAA antisense: UUCCACUCUCUUUCAAAAAAGUGUUGACACUCAAAUGUUCAUCACUUGUUCCUGGUGGAGUGUCUACUAAUAAAUAUUCCAUUUCGCCCCAUUCUACAUCUUUUAAAAAUUGCUUUAUCAGGCCGUUUUUCUUUGGUCCUCUCCAAAUAACUGCAUCAUCUCGGUUGGGAAGCAUAAAUUGCACGCUCAUUACUGCUAGAUUUUCAAGUACCCAAACUGGACUCCAUCCUGUAUUACUGACGUGAAUAAUCUCUUCCUCAACUCCCAUCAUUUUUGGAAUACUUGGCCCGCAAAUAUCUGUAUCCAUGACACCAACCACAAUUUCCGGGUCUUUUGCAAGUGCAUGUGCAAGCAGUGUUGUAAAUGUACUUUUACCCACUCCACCCUUGCCUGA | 13 ± 4 | – |
| GS3467 (nucleic acid) sense: CCCAGCUUCAUUAGAGUGGUCAAAGAAACCAUUGUAGGUGUGAAUAGGAGGCUGAACUAGAGAUAAGAUGGUAUUAUGCAGAAUAUGACAAGUAGGAUUGCAUUGCUUAUCUUUAAUAAUCUCUCUCUUAAUUGUUAUCUUAGAAGCAAAGUUAGUUUCAUCAUCGCUUAAUUUUAAAUUAAUAAGUGAAACUUUGCUUCCAUAAGGUGAGCUACAAGGUGAUGGCUGAAUUAAAUCUUCAACUUUUUUAUUAUCAGUCCUUAUUUCUAGGUCAUAUGACCUAGAAUCUUCUAUAAAUUUUCUAAGCUUAUUUGAAGAAUCCUUAGUAGGUGUUUUUGCAAUGAAACGAUUAUUUUCUUCAGGUAAGAUUGUAGCGACGCUAACCGAUGACUCAGU antisense: ACUGAGUCAUCGGUUAGCGUCGCUACAAUCUUACCUGAAGAAAAUAAUCGUUUCAUUGCAAAAACACCUACUAAGGAUUCUUCAAAUAAGCUUAGAAAAUUUAUAGAAGAUUCUAGGUCAUAUGACCUAGAAAUAAGGACUGAUAAUAAAAAAGUUGAAGAUUUAAUUCAGCCAUCACCUUGUAGCUCACCUUAUGGAAGCAAAGUUUCACUUAUUAAUUUAAAAUUAAGCGAUGAUGAAACUAACUUUGCUUCUAAGAUAACAAUUAAGAGAGAGAUUAUUAAAGAUAAGCAAUGCAAUCCUACUUGUCAUAUUCUGCAUAAUACCAUCUUAUCUCUAGUUCAGCCUCCUAUUCACACCUACAAUGGUUUCUUUGACCACUCUAAUGAAGCUGGG | 25 ± 4 | 13 ± 7 |
| GS1806: dsRNA trigger SEQ ID NO 181; gene target Serine/threonine-protein kinase SCH9 (nucleic acid) DNA: GACCAACCACAGCACATTTCAAAGACAAGTACGCCTAATGACCAAAAGTCAACCATCTTAGTATATCCTGTTTCATCTAGGAGAACCTCAGGAGCAAGGTATTCCGTGGTACCACAGAATGTATTTGTCGTCTCATTTTTGGTCAAGTTAGCTTTTGAAAGACCAAAATCACATAAAGCGATATGTCCATTAGCATCGAGCAGAATGTTTTCAGGTTTTAGATCGCGATAAACGATGTCATGTTTGTGAAGGTGCTGGAGAGCCAAAATGAGCTCAGCTATGTAAAATTTTGCTCGCTCTTCACAGAACCTTCCTTCTCTTTGTAAATGCCAAAAAAGTTCGCCTCCAGACATATAATCAGTTACCAAATAGAGATCACTTGGAGTTTGGAATGAAAATTTAAGTCCAACAATGAACTGCGACTCTGCCATAGCTGTTCTGACTAAGATATTTCTTTCGCCAACAGTATGGGCGACCTCTTTCTTTTGTACAATAACCTTTTTCTGAAGGACTTTCATGGCATAAATTCTTCCTGTATCTTTTTTCCTGACTTGATAAACTTGACCAAAAGTTCCTTTTCCTATCAGTTTCAAGAATT | 34 ± 7 | 21 ± 7 |
| GS3472 (nucleic acid) sense: UUAUUUGUGGCGACCUACCGAAAAUAAUCGAAGAUUCGCAAUGAGUGAUGAGUUAGCACAGGACGAUGAAGGUUUUGAAAUAUCCGACUUUGGAGUUGAAGACGAUGAAAUAGAGUCUACUAUAGGCCAAAAAGAAGAUAGAGAUCAAAGGCCAGAAGAGACGAGGUACAAUCCUGCGCCGAAAAAUUCCGGACGAAAGACUGUAAAAAAUACAACACGUGAGAGCUUAGAAAGAGAAACGAUAUUUACUGUUGGUGAAGACGGGGACAAAUGGUCAAAUAAUGAUAGUGACGAGGAGCAUGUUAAUCUCGUUAGUGGGUCAAACAAGCCUUCUUAGAUUUACGACAAUUUUUUU antisense: AAAAAAAUUGUCGUAAAUCUAAGAAGGCUUGUUUGACCCACUAACGAGAUUAACAUGCUCCUCGUCACUAUCAUUAUUUGACCAUUUGUCCCCGUCUUCACCAACAGUAAAUAUCGUUUCUCUUUCUAAGCUCUCACGUGUUGUAUUUUUUACAGUCUUUCGUCCGGAAUUUUUCGGCGCAGGAUUGUACCUCGUCUCUUCUGGCCUUUGAUCUCUAUCUUCUUUUUGGCCUAUAGUAGACUCUAUUUCAUCGUCUUCAACUCCAAAGUCGGAUAUUUCAAAACCUUCAUCGUCCUGUGCUAACUCAUCACUCAUUGCGAAUCUUCGAUUAUUUUCGGUAGGUCGCCACAAAUAA | 28 ± 5 | 22 ± 6 |
| GS3466 (nucleic acid) sense: CACGAAUACGUGUAAUUCCUUCUCUCAUGAUACUUUCUCGUUUCUCACAUUGCUUUUUGAAUUUAGAAAAUGCUAGCGUUUCUAAAUCUUUUUGUUGAGCUUUUAAAUCGUUGAUCAUGGCCAUUUGCUCGUCAAUUUUUACUAAAAAGUCCUUGACAUGCCUAUUUACAUUGAAUACGUUUCUGGUAACCUUGGUUUGAAUAUUUUUUGCUCGAUUUGCAUAACGCAAUGUAUUCUGAGUCUCAUCAAAAUGUGCACUAGACGGACUUACGCAAACAAUCAUUACGGUCUUGCAAUUGCCACCGAGAGAAAACUUUAGCAGUCGAGUUAACUUUGAAUUCCGAUAUGGAACGUGGUUUUUUUUUCGGGGAUCACAAA antisense: UUUGUGAUCCCCGAAAAAAAAACCACGUUCCAUAUCGGAAUUCAAAGUUAACUCGACUGCUAAAGUUUUCUCUCGGUGGCAAUUGCAAGACCGUAAUGAUUGUUUGCGUAAGUCCGUCUAGUGCACAUUUUGAUGAGACUCAGAAUACAUUGCGUUAUGCAAAUCGAGCAAAAAAUAUUCAAACCAAGGUUACCAGAAACGUAUUCAAUGUAAAUAGGCAUGUCAAGGACUUUUUAGUAAAAAUUGACGAGCAAAUGGCCAUGAUCAACGAUUUAAAAGCUCAACAAAAAGAUUUAGAAACGCUAGCAUUUUCUAAAUUCAAAAAGCAAUGUGAGAAACGAGAAAGUAUCAUGAGAGAAGGAAUUACACGUAUUCGUG | 21 ± 7 | 19 ± 11 |
| GS3474 (nucleic acid) sense: UAAGCAAUUUGAUGAUGAUCAUUAUGGUCUGGAGAAAGUCAAGAAAAGACUCCUUGAAUAUUUAGCGGUUCUCAAACUAAAGCAAUCAAUAAAUCAAGACAUUGACAUCAAGAUUAAGAAGGCAUCUGAAGAAAGAGCACAUGAAAAACUAGAAAUCUUAAAAAGUCAGAGAAUGGUUGAUAAAUCGCCUAUCUUGCUACUCGUUGGUCCUCCAGGUGUAGGUAAAACAAGCCUCGCAAAAUCUGUUGCAACAGCACUUGGUCGUAAAUUUCAUCGAAUUUCUCUUGGUGGUGUUCGGGAUGAGGCUGAAAUUAGGGGACAUCGUCGUACUUACGUUGCAGCUAUGCCAGGCCUCAUAAUUCAAGGGCUUAAGAAAGUUGGAGUGUGCAAUCCCGUUUUUCUUUUAGAUGAAAUUGAUAAAAUUGGGAGUUCUAAUUUCCAAGGUGAUCCUAGCGCUGCAAUGCUCGAAGUCCUCGAUCCAGAGCAGAAUCACAGUUUUACAGACCACUACGUCAAUAUUCCAGUAGACCUUAGCAAAGUUCUGUUUAUCGCUACUGCAAAUAGUCUGGAUACUAUUUCACCACCACUCUUAGACAGA antisense: AAUGACAUGGAUUAUGUUGAACAUCAUUUUGGUCCUGCAGGCUUAAAUCGACAGGACAUUGUCCAUACAUACAGAACUCUUAAUGCAAAGAUUAUUAAAGCUGACCUCCUUCGUUAUUUGAUUAUGUAUGUGGAAGGAGGUCUAUACGCUGACAUUGAUGUCGAAGCUUUACGUCCAAUUGAACGUUUUAUUCCAGAGCGAUGGAACGAGAAAGACAUUGAUAUGAUUGUAGGGGUCGAGAUUGAUAUGCCGCAUUAUUCCGAUCACCCUAUUCUUGGUCCUAAAUCUAAAUCAUUUUGCCAAUGGACAUUUAUGUGCAAGCCACGUCUACCGGUGAUGAUGCAAUUAAUUGAUAAUAUUAUCGUCUGGCUCAAUCAGCUUUCCCGA | 17 ± 5 | 9 ± 8 |
